Results taken from publication doi:10.1101/2022.12.02.518933.
Changes are numbered by the printed parent chain. In names and notes the source's numbering stands.

Target: AF647-labeled cysteine-less BtuCD Q111C reconstituted into nanodiscs (E. coli) (UniProt P06609)
Experiment: FRET or BRET

B1: AF546-labeled BtuF harboring the E202A mutation (natural protein)
chain: APRVITLSPANTELAFAAGITPVGVSSYSDYPPQAQKIEQVSTWQGMNLERIVALKPDLVIAWRGGNAERQVDQLASLGIKVMWVDATSIEQIANALRQLAPWSPQPDKAEQAAQSLLDQYAQLKAQYADKPKKRVFLQFGINPPFTSGKESIQNQVLEVCGGENIFKDSRVPWPQVSRAQVLARSPQAIVITGGPDQIPKIKQYWGEQLKIPVIPLTSDWFERASPRIILAAQQLCNALSQVD
modifications: Alexa Fluor 546 C5 maleimide on the cysteine appended to the C-terminus
k fast (double exponential, green emission on addition of BtuCD*): 0.124 s⁻¹ | k slow (double exponential, green emission on addition of BtuCD*): 0.016 s⁻¹

B2: AlexaFluor 546 (AF546)-labeled E. coli BtuF (natural protein)
chain: B1 chain with A180E
modifications: Alexa Fluor 546 C5 maleimide on the cysteine appended to the C-terminus
k fast (double exponential, with AMPPNP): 0.108 s⁻¹ | k fast (double exponential; initial single-lobe association): 0.158 s⁻¹ | k slow (double exponential, with AMPPNP): 0.009 s⁻¹ | k slow (double exponential; locking): 0.025 s⁻¹
